According to patent US12679888B2, “IL-18 binding protein (IL-18BP) and antibodies for treating inflammatory diseases” (AB2 BIO SA, priority 2015, dated 2026):
Several values for one entry are separate records, joined by “and”; a condition that tells them apart may be missing. Equal values may be shown once. Read-outs that look alike come from different tables or passages of the source.

Columns and labels:
[1] = tested on: RA and Pso patients; assay: Previous human studies with r-hIL-18BP in RA and Pso patients; format: in vivo; conditions: 20 mg 3 times a week
Description: (§1) No validated animal model has been described for this condition. In the collagen-induced arthritis murine model the active dose for r-hIL-18BP administered intraperitoneally (i.p.) was determined to be 1 mg/Kg body weight. […] Altogether the expected pharmacologically active dose for a “humanized mice” treated by s.c. route with r-hIL-18BP is round 4.85 mg/kg. […] Although the guidance was initially written for extrapolating animal doses to healthy volunteers, its principles can be applied also to patients. […] Those doses will be likely also ineffective in AoSD patients considering that blood levels of IL-18 in AoSD are higher than those reported in the two above mentioned conditions.

[2] = molecular target: T1, IL-18 (Homo sapiens, UniProt Q14116); conditions: cited from earlier work
T1 sequence (Q14116 37-193): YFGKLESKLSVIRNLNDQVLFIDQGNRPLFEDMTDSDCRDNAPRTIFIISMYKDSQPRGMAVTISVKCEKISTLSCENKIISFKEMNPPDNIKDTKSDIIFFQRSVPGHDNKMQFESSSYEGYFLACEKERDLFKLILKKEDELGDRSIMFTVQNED

[3] = tested on: G-CSF; assay: G-CSF in BALF by ELISA, exacerbation/tobacco smoke mouse model; format: in vivo
Description: Mice received either vehicle (PBS) or IL-18BP. IL-18BP was given subcutaneously to 3 groups of animals respectively at 1, 3 or 10 mg/kg 2 h prior to the initial tobacco smoke exposure from Day 1 to Day 4. Mice received orally either vehicle or dexamethasone (10 mg/kg) 1 h prior to each twice daily exposure. Mice received by intranasal administration either the vehicle or Polyinosinic:polycytidylic acid (2 mg/kg) 2 h prior to the initial air or tobacco smoke exposure on Day 4 to induce lung inflammation exacerbation. Tobacco smoke exposure was performed during the morning and afternoon as follow: Day 1 for 15 min, Day 2 for 25 min, Day 3 for 30 min and Day 4 for 30 min.
Following the above treatments, animals were terminally anaesthetised on Day 5. After that, a blood sample was taken via the sub-clavian artery (plasma) and the animals were bronchoalveloar lavaged with 3×0.4 ml of PBS for further cellular and cytokine/mediator analysis. Bronchoalveolar lavage supernatants were stored at −80° C. for cytokine/mediator analysis. Cells recovered from the BALF were counted using the Sysmex cell counter.
G-CSF is well acknowledged as key cytokine stimulating the survival, proliferation, differentiation, and function of neutrophil precursors and mature neutrophils. […] The presence of G-CSF in the BALF was monitored with a commercially available ELISA kit.

[4] = molecular target: T1, IL-18; assay: New BIAcore setup: IL-18BP bound to chip, affinity to IL-18; format: binding; parameters: purchased; conditions: IL-18BP bound to BIAcore chip
Description: Following the above KD results obtain by titration, we tested the binding affinity of IL-18BP to IL-18 with a simpler BIAcore setup consisting of binding IL-18BP to the BIAcore chip and then testing its affinity to IL-18. The method setup is the contrary of Kim et al 2000 ^8, who bound IL-18 to the BIAcore chip with a monoclonal antibody and then tested the affinity of the complex antibody-IL-18 to IL-18BP.

[5] = in vivo
[6] = Bioavailability of r-hIL-18BP by i.p. and s.c. route; format: in vivo, mouse
Description: as §1

[7] = tested on: collagen-induced arthritis murine model; assay: Collagen-induced arthritis murine model and dose extrapolation; format: in vivo, mouse
Description: as §1

[8] = molecular target: T1, IL-18; assay: KD calculation by titration of IL-18 with IL-18BP, free IL-18 ELISA (IL-18BP capture); format: binding; parameters: purchased; conditions: read-out: KD between human IL-18 and IL-18BP by titration
Description: Microplate wells are coated with an appropriate volume phosphate buffer saline solution containing recombinant human IL-18BP (r-hIL-18BP) as shown in SEQ ID NO 7, and less than 30% of N-terminal and/or C-terminal deletion variants of IL-18BP. A description of the r-hIL-18BP is provided in section 6.6.1 below. A description of the purification protocol is provided in section 6.6.2. Plates are incubated for a period of time at 4° C. and then stabilized with a blocking buffer containing bovine serum albumin or other appropriate blocking agents. Once the reaction is finished, microplates are sealed and stored at 4° C. until used for detection of free IL-18. Microplates can also be dried in a stabilizing solution allowing storage at room temperature and then be reconstituted by hydration when needed for assay.
As an example, for a final reaction volume of 100 μl, dispense first 80 μl of biotin/antibody conjugate. Samples or biological fluids containing free IL-18 are tested with the IL-18BP coated microplates. After that, 20 μl sample volume containing biological fluid or standard is dispensed per microplate well. […] The resulting reactions are then monitored with a microplate reader at an appropriate nanometer wavelength for absorbance or fluorescence of the produced reagent. […]
• KD was calculated based on the following formula: KD=[free IL-18]×[free IL-18BP]/[IL-18/IL-18BP complex] […]

B1: IL-18BP: soluble glycoprotein of 164 amino acids produced from a Chinese Hamster Ovary cell line; isoform a, SEQ ID NO 7 (protein, listed as Homo sapiens)
chain: TPVSQTTTAATASVRSTKDPCPSQPPVFPAAKQCPALEVTWPEVEVPLNGTLSLSCVACSRFPNFSILYWLGNGSFIEHLPGRLWEGSTSRERGSTGTQLCKALVLEQLTPALHSTNFSCVLVDPEQVVQRHVVLAQLWAGLRATLPPTQEALPSSHSSPQQQG
modifications: CHO glycosylation; MISC_FEATURE - Human interleukin-18 binding protein isoform a
- clinical efficacy [1]: no efficacy
- Kd ([2]; BIAcore measurements, read-out: KD reported in the literature (Kim et al 2000)): 0.4 nM
- Kd ([2]; IL-18-IL-18BP complex, stoichiometry 1:1, read-out: Dissociation constant KD as calculated by Kim et al 2000): 0.4 nM
- G-CSF release in the lung airways (BALF) ([3]; IL-18BP s.c., day 5): mitigates G-CSF release in the lung airways
- G-CSF release in the lung airways (BALF) ([3]; three tested doses 1, 3 or 10 mg/kg s.c.): statistically relevant effect
- Ka [4]: 5.3 ± 1.2 10^+5/MS
- Kd [4]: 0.02 to 0.03 nM
- median half-life [5]: ~40 h
- bioavailability ([6]; i.p. route): ~100%
- bioavailability ([6]; s.c. route): 55%
- effective s.c. dose in mice ([7]; adjusted for s.c. bioavailability): 1.82 mg/kg
- active dose ([7]; administered intraperitoneally (i.p.)): 1 mg/Kg body weight
- human equivalent dose ([7]; allometric murine conversion factor of 12.3): 0.39 mg/kg
- human equivalent dose ([7]; for a 70 Kg individual): 27.3 mg
- expected pharmacologically active dose for a humanized mice ([7]; s.c. route, corrected for Kd difference): ~4.85 mg/kg
- Kd ([8]; PBS supplemented by 5% BSA diluent): 0.035 nM
- Kd ([8]; Serum diluent): 0.05 nM and ~0.05 nM
